Results taken from patent publication US20260117203A1, “MUTANT KETOREDUCTASE WITH INCREASED KETOREDUCTASE ACTIVITY AS WELL AS METHODS AND USES INVOLVING THE SAME” (Hoffmann-La Roche Inc., priority 2023, published 2026).

Key:
Format in all cases: biochemical, Sporidiobolus salmonicolor
[1] = substrate: C[C@@H]1CC(=O)c2ncnc(N3CCN(C(=O)OC(C)(C)C)CC3)c21; experiment: Kinetic characterization (app. KM, app. kcat), Table 9c, variant E00144; conditions: other: E00144; pH 7.0
[2] = substrate: C[C@@H]1CC(=O)c2ncnc(N3CCN(C(=O)OC(C)(C)C)CC3)c21; experiment: Kinetic characterization (app. KM, app. kcat), Table 9c, variant E00158; conditions: other: E00158; pH 7.0
[3] = substrate: C[C@@H]1CC(=O)c2ncnc(N3CCN(C(=O)OC(C)(C)C)CC3)c21; experiment: Kinetic characterization (app. KM, app. kcat), Table 9c, variant E00128; conditions: other: E00128; pH 7.0
[4] = substrate: C[C@@H]1CC(=O)c2ncnc(N3CCN(C(=O)OC(C)(C)C)CC3)c21; experiment: Kinetic characterization (app. KM, app. kcat), Table 9c, wild type; conditions: other: WT; pH 7.0
[5] = substrate: C[C@@H]1CC(=O)c2ncnc(N3CCN(C(=O)OC(C)(C)C)CC3)c21; experiment: Kinetic characterization (app. KM, app. kcat), Table 9c, variant E00184 (first line); conditions: other: E00184, first line; pH 7.0
[6] = substrate: C[C@@H]1CC(=O)c2ncnc(N3CCN(C(=O)OC(C)(C)C)CC3)c21; experiment: Kinetic characterization (app. KM, app. kcat), Table 9c, variant E00184 (second line); conditions: other: E00184, second line; pH 7.0

B1: Sporidiobolus salmonicolor ketoreductase variant E00144, Trp97_Met241_Trp242_Ser245_Met316_Met342, SEQ ID NO: 3, His-tag (Sporobolomyces salmonicolor; … (protein)
chain: MAKIDNAVLPEGSLVLVTGANGFVASHVVEQLLEHGYKVRGTARSASKLANLQKRWDAKYPGRFETAVVEDMLKQGAYDEVIKGAAGVAHIASVVSWSNKYDEVVTPAIGGTLNALRAAAATPSVKRFVLTSSTVSALIPKPNVEGIYLDEKSWNLESIDKAKTLPESDPQKSLWVYAASKTEAELAAWKFMDENKPHFTLNAVLPNYTIGTIFDPETQSGSTSGWMMSLFNGEVSPALAMWPPSYYVSAVDIGLLHLGCLVLPQIERRRVYGTAGTFDWNTVLATFRKLYPSKTFPADFPDQGQDLSKFDTAPSMEILKSLGRPGWRSIEESIKDLVGSEMA
Question: What does the source list for B1?
Answer: Km [1]: 175.2 ± 9.9 µM; kcat [1]: 0.103 ± 0.00333 s⁻¹; kcat/Km [1]: 593 M⁻¹ s⁻¹

B2: Sporidiobolus salmonicolor ketoreductase variant E00158, Trp97_Lys238_Met241_Trp242_Ser245_Met316_Met342, SEQ ID NO: 6, His-tag (Sporobolomyces salmonicolor; … (protein)
chain: MAKIDNAVLPEGSLVLVTGANGFVASHVVEQLLEHGYKVRGTARSASKLANLQKRWDAKYPGRFETAVVEDMLKQGAYDEVIKGAAGVAHIASVVSWSNKYDEVVTPAIGGTLNALRAAAATPSVKRFVLTSSTVSALIPKPNVEGIYLDEKSWNLESIDKAKTLPESDPQKSLWVYAASKTEAELAAWKFMDENKPHFTLNAVLPNYTIGTIFDPETQSGSTSGWMMSLFNGEVSPKLAMWPPSYYVSAVDIGLLHLGCLVLPQIERRRVYGTAGTFDWNTVLATFRKLYPSKTFPADFPDQGQDLSKFDTAPSMEILKSLGRPGWRSIEESIKDLVGSEMA
Question: For B2, which Km [2] is on record?
Answer: 299.7 ± 7.9 µM

Question: And the kcat [2]?
Answer: 0.255 ± 0.00667 s⁻¹

Question: What about the kcat/Km [2] of the same protein?
Answer: 853 M⁻¹ s⁻¹

B3: Sporidiobolus salmonicolor ketoreductase variant E00128, Trp97_Met241_Trp242_Ser245, SEQ ID NO: 2, His-tag (Sporobolomyces salmonicolor; F97W/L241M/M242W/Q245S) (protein)
chain: MAKIDNAVLPEGSLVLVTGANGFVASHVVEQLLEHGYKVRGTARSASKLANLQKRWDAKYPGRFETAVVEDMLKQGAYDEVIKGAAGVAHIASVVSWSNKYDEVVTPAIGGTLNALRAAAATPSVKRFVLTSSTVSALIPKPNVEGIYLDEKSWNLESIDKAKTLPESDPQKSLWVYAASKTEAELAAWKFMDENKPHFTLNAVLPNYTIGTIFDPETQSGSTSGWMMSLFNGEVSPALAMWPPSYYVSAVDIGLLHLGCLVLPQIERRRVYGTAGTFDWNTVLATFRKLYPSKTFPADFPDQGQDLSKFDTAPSLEILKSLGRPGWRSIEESIKDLVGSETA
Question: For B3, which Km [3] is on record?
Answer: 162.8 ± 7.8 µM

Question: What about the kcat [3] of the same protein?
Answer: 0.0967 ± 0.00167 s⁻¹

Question: What about the kcat/Km [3] of the same protein?
Answer: 592 M⁻¹ s⁻¹

B4: Sporidiobolus salmonicolor ketoreductase, wild type (WT), UniProt Q9UUN9, SEQ ID NO: 1 (Sporobolomyces salmonicolor) (protein)
chain: MAKIDNAVLPEGSLVLVTGANGFVASHVVEQLLEHGYKVRGTARSASKLANLQKRWDAKYPGRFETAVVEDMLKQGAYDEVIKGAAGVAHIASVVSFSNKYDEVVTPAIGGTLNALRAAAATPSVKRFVLTSSTVSALIPKPNVEGIYLDEKSWNLESIDKAKTLPESDPQKSLWVYAASKTEAELAAWKFMDENKPHFTLNAVLPNYTIGTIFDPETQSGSTSGWMMSLFNGEVSPALALMPPQYYVSAVDIGLLHLGCLVLPQIERRRVYGTAGTFDWNTVLATFRKLYPSKTFPADFPDQGQDLSKFDTAPSLEILKSLGRPGWRSIEESIKDLVGSETA
Question: With B4 as the protein, how does the Km [4] read?
Answer: 11.9 ± 1.1 µM

Question: And the kcat [4]?
Answer: 0.00817 ± 0.000333 s⁻¹

Question: What about the kcat/Km [4] of the same protein?
Answer: 683 M⁻¹ s⁻¹

B5: Sporidiobolus salmonicolor ketoreductase variant E00184, Trp97_Ala224_Lys238_Met241_Trp242_Ser245_Gly246_Met316_Met342, SEQ ID NO: 8, His-tag (Sporobolomyces … (protein)
chain: MAKIDNAVLPEGSLVLVTGANGFVASHVVEQLLEHGYKVRGTARSASKLANLQKRWDAKYPGRFETAVVEDMLKQGAYDEVIKGAAGVAHIASVVSWSNKYDEVVTPAIGGTLNALRAAAATPSVKRFVLTSSTVSALIPKPNVEGIYLDEKSWNLESIDKAKTLPESDPQKSLWVYAASKTEAELAAWKFMDENKPHFTLNAVLPNYTIGTIFDPETQSGSTAGWMMSLFNGEVSPKLAMWPPSGYVSAVDIGLLHLGCLVLPQIERRRVYGTAGTFDWNTVLATFRKLYPSKTFPADFPDQGQDLSKFDTAPSMEILKSLGRPGWRSIEESIKDLVGSEMA
Question: How did the Km [5] turn out when B5 was run?
Answer: 471.7 ± 34.6 µM

Question: And the kcat [5]?
Answer: 0.355 ± 0.0167 s⁻¹

Question: What about the kcat/Km [5] of the same protein?
Answer: 753 M⁻¹ s⁻¹

B6: Sporidiobolus salmonicolor ketoreductase variant E00184 (second line so labelled; in Table 9b W97 V134 A224 K238 M241 W242 S245 G246 M316 M342, the mutations … (protein)
chain: MAKIDNAVLPEGSLVLVTGANGFVASHVVEQLLEHGYKVRGTARSASKLANLQKRWDAKYPGRFETAVVEDMLKQGAYDEVIKGAAGVAHIASVVSWSNKYDEVVTPAIGGTLNALRAAAATPSVKRFVLTSSVVSALIPKPNVEGIYLDEKSWNLESIDKAKTLPESDPQKSLWVYAASKTEAELAAWKFMDENKPHFTLNAVLPNYTIGTIFDPETQSGSTAGWMMSLFNGEVSPKLAMWPPSGYVSAVDIGLLHLGCLVLPQIERRRVYGTAGTFDWNTVLATFRKLYPSKTFPADFPDQGQDLSKFDTAPSMEILKSLGRPGWRSIEESIKDLVGSEMA
notes: second row labelled E00184, evidently E00185
Question: What does the source list for B6?
Answer: Km [6]: 143.5 ± 5.5 µM; kcat [6]: 0.525 ± 0.0133 s⁻¹; kcat/Km [6]: 3660 M⁻¹ s⁻¹
